The record followed here is PMC8969299 (Chemical Engineering Journal, 2022).

The target of the assay is SARS-CoV-2 (2019-nCoV) spike (S) protein RBD-His recombinant protein (SARS-CoV-2, UniProt P0DTC2). Briefly: FRET or BRET.

For the molecule IEEQAKTFLDKFNHEAEDLFYQSSLASWK [hACE2 mimic peptide beacon (COVID19-PEB)], the binding result is listed as “binds”.
